Results on two compounds are retold here after patent publication US7498317B2, “Antibacterial agents and process for producing the same” (Kabushiki Kaisha Yakult Honsha, priority 1998, dated 2009).

SMILES strings stand for the structures.

The series relates to Helicobactor pylori. The series can be described thus: Growth of Helicobactor pylori in 96-well microplate (turbidity at 600 nm). The format is cell-based. Conditions: 37° C. for 3 days; for suppression of the growth of Helicobactor pylori: 2 μL of 1 mg/mL added to 200 μL culture; for absorbance (turbidity at 600 nm): 2 μL of 1 mg/mL added to 200 μL of 1.5×10^8 CFU/mL in Brucella medium with 5% FCS, slightly aerobic, control group 0.835.

For the compound `CC1(C)S[C@@H]2[C@H](NC(=O)C(NCC(O)C3OCC(O)C3OC3OC(CO)C(OS(=O)(=O)O)C(O)C3O)c3ccccc3)C(=O)N2C1C(=O)O` (stereo partly shown) [CarrabioAM], the “suppression of the growth of Helicobactor pylori” value is given as “totally suppressed the growth” and the “absorbance (turbidity at 600 nm)” value was 0.003.
For `CON=C(C(=O)N[C@@H]1C(=O)N2C(C(=O)O)=C(COC(C)=O)CS[C@H]12)c1csc(NCC(O)C2OCC(O)C2OC2OC(CO)C(OS(=O)(=O)O)C(O)C2O)n1` (stereo partly shown) [CarrabioCTX], the “suppression of the growth of Helicobactor pylori” value is on record as “totally suppressed the growth” and the “absorbance (turbidity at 600 nm)” value was 0.000.
